Assay results: patent US20040115195A1

Target: PTH-1 receptor (human) (UniProt Q03431)
Assay: cell-based or functional assay

Sequence of UniProt Q03431 (Q03431 27-593): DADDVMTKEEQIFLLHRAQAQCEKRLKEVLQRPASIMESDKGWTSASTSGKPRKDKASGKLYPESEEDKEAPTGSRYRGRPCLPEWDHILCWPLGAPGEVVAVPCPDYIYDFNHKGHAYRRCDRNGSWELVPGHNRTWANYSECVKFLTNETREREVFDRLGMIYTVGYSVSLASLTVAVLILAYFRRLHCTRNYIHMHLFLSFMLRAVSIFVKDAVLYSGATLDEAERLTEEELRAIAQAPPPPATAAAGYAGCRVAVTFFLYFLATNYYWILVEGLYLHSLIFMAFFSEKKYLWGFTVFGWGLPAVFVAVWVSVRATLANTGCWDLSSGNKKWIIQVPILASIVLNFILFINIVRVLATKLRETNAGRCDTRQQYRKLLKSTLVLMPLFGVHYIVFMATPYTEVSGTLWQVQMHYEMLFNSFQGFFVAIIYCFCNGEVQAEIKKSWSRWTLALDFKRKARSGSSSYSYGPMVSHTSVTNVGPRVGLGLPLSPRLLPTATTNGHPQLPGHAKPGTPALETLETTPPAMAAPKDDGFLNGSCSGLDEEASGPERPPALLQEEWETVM

Q: With “human PTH 1-34 (from UniProt P01270 32-65) (peptide)” as the substance, how does the intracellular cAMP levels in hOB-01-C1-PS-09 cells preincubated 48 hr at 39 C, treated 10 min at 37 C read?
A: 5 to 6 fold
